The target in assay [1] is T1, RB200 (human, UniProt P00533 25-645; P21860 20-643).
T1 construct: extracellular domain; Purified over Ni-Sepharose, so a His tag is likely on one chain, but none is described; also called parent heterodimer RB200; EGFR/HER3 heterodimer
The assay can be described thus: Eu-NRG1-β saturation binding (DELFIA), purified heterodimer immobilised on anti-human Fc plate. As for the experimental part: (§1) Plates were incubated at RT for 2 hrs and then rinsed 3 times with DELFIA wash buffer. […] The plates were incubated at RT for 2 hrs followed by three quick rinse with ice-cold Delfia wash buffer containing0.02% Tween-20. To quantify bound Eu-ligands 130 μl/well of Delfia enhancement solution was added and the plates were read on a fluorescence plate reader (Envision, model 2100, PerkinElmer).

Assay [2] deals with T1, RB200. Nature of the assay: 125I-NRG1-β saturation binding, heterodimer immobilised on anti-Fc coated plate.
In a further assay the target is T2, HER3:Fc mutant Y436L (human, UniProt P21860 20-643).
T2 construct: extracellular domain
The assay can be described thus: HER3:Fc mutant ligand binding screen.

The next assay concerns the target T3, HER3:Fc mutant F96L (human, UniProt P21860 20-643).
T3 construct: extracellular domain
Nature of the assay: HER3:Fc mutant ligand binding screen.

For a further assay, the target named is T4, HER3:Fc mutant D343I (human, UniProt P21860 20-643).
T4 construct: extracellular domain
The assay can be described thus: HER3:Fc mutant ligand binding screen.

In another assay the target is T5, HER3:Fc mutant L102S (human, UniProt P21860 20-643).
T5 construct: extracellular domain
Nature of the assay: HER3:Fc mutant ligand binding screen.

Another assay has as its target T6, HER3:Fc mutant H565E (human, UniProt P21860 20-643).
T6 construct: extracellular domain
Nature of the assay: HER3:Fc mutant ligand binding screen.

The next assay addresses T7, HER3:Fc mutant C481R (human, UniProt P21860 20-643).
T7 construct: extracellular domain
Nature of the assay: HER3:Fc mutant ligand binding screen.

The target in the next assay is T8, HER3:Fc mutant N103K (human, UniProt P21860 20-643).
T8 construct: extracellular domain
The assay can be described thus: HER3:Fc mutant ligand binding screen.

For a further assay, the target named is T9, HER3:Fc mutant V19Q (human, UniProt P21860 20-643).
T9 construct: extracellular domain
Nature of the assay: HER3:Fc mutant ligand binding screen.

The next assay concerns the target T10, HER3:Fc mutant K415S (human, UniProt P21860 20-643).
T10 construct: extracellular domain
Nature of the assay: HER3:Fc mutant ligand binding screen.

For another assay, the target named is T11, HER3:Fc mutant S438T (human, UniProt P21860 20-643).
T11 construct: extracellular domain
The assay can be described thus: HER3:Fc mutant ligand binding screen.

Another assay addresses T12, HER3:Fc mutant G563Q (human, UniProt P21860 20-643).
T12 construct: extracellular domain
Nature of the assay: HER3:Fc mutant ligand binding screen.

The target in a further assay is T13, HER3:Fc mutant D343F (human, UniProt P21860 20-643).
T13 construct: extracellular domain
The assay can be described thus: HER3:Fc mutant ligand binding screen.

A further assay has as its target T14, HER3:Fc mutant D343L (human, UniProt P21860 20-643).
T14 construct: extracellular domain
Nature of the assay: HER3:Fc mutant ligand binding screen.

The target of another assay is T15, HER3:Fc mutant D325N (human, UniProt P21860 20-643).
T15 construct: extracellular domain
Nature of the assay: HER3:Fc mutant ligand binding screen.

For another assay, the target named is T16, HER3:Fc mutant A439D (human, UniProt P21860 20-643).
T16 construct: extracellular domain
The assay can be described thus: HER3:Fc mutant ligand binding screen.

A further assay concerns the target T17, HER3:Fc mutant S18T (human, UniProt P21860 20-643).
T17 construct: extracellular domain
Nature of the assay: HER3:Fc mutant ligand binding screen.

In another assay the target is T18, HER3Y246A:Fc (human, UniProt P21860 20-643).
T18 construct: extracellular domain; Screened as an Fc fusion homodimer in conditioned medium
Nature of the assay: HER3:Fc mutant ligand binding screen.

The target in another assay is T19, HER3:Fc mutant L48Y (human, UniProt P21860 20-643).
T19 construct: extracellular domain
The assay can be described thus: HER3:Fc mutant ligand binding screen.

The next assay has as its target T20, HER3:Fc mutant D343H (human, UniProt P21860 20-643).
T20 construct: extracellular domain
Nature of the assay: HER3:Fc mutant ligand binding screen.

Another assay addresses T21, RB242 (human, UniProt P00533 25-645; P21860 20-643).
T21 construct: extracellular domain; purified to about 95% homogeneity; also called optimized hermodulin variant RB242
The assay can be described thus: displacement of Eu-EGF from immobilised RB242 by unlabeled HB-EGF. As for the experimental part:
as §1

Assay [3] addresses T1, RB200. The assay can be described thus: displacement of Eu-EGF from immobilised RB200 by unlabeled HB-EGF. As for the experimental part:
as §1

Data on 2 molecules can be found in US20100278801A1 (published 2010).

B1: NRG1-β (ligand, UniProt Q02297-6 177-241, looked up)
chain: SHLVKCAEKEKTFCVNGGECFMVKDLSNPSRYLCKCPNEFTGDRCQNYVMASFYKHLGIEFMEAE
notes: also called NRG1β1; NRGβ1
As a reminder, the Kd is the constant that tells how readily two partners part at equilibrium. A low value points to tighter binding. Regarding B1, the dissociation constant Kd with RB200 [1] was determined as 3.1 nM; in the assay with RB200 [2], 12.3 nM. Also, the binding result in the assay with HER3:Fc mutant Y436L, with HER3:Fc mutant F96L, in the assay with HER3:Fc mutant D343I, with HER3:Fc mutant L102S, with HER3:Fc mutant H565E and in the assay with HER3:Fc mutant C481R was “no binding” throughout. Besides, the binding result with HER3:Fc mutant N103K, with HER3:Fc mutant V19Q, in the assay with HER3:Fc mutant K415S, with HER3:Fc mutant S438T, with HER3:Fc mutant G563Q and with HER3:Fc mutant D343F was “no binding” in each case. In addition, the binding result with HER3:Fc mutant D343L was “no binding”; with HER3:Fc mutant D325N, “no binding”; in the assay with HER3:Fc mutant A439D, “no binding”; with HER3:Fc mutant S18T, “no binding”; in the assay with HER3Y246A:Fc, “binds”; in the assay with HER3:Fc mutant L48Y it was “no binding”. The binding result with HER3:Fc mutant D343H is “no binding”.

B2: HB-EGF (ligand, UniProt Q99075 63-148, looked up)
chain: DLQEADLDLLRVTLSSKPQALATPNKEEHGKRKKKGKGLGKKRDPCLRKYKDFCIHGECKYVKELRAPSCICHPGYHGERCHGLSL
The term Ki denotes the dissociation constant of the complex between target and ligand, obtained from inhibition or displacement. Read a low Ki as a stronger hold on the target. With B2, the results for the inhibitory constant (Ki) with RB242 and in the assay with RB200 [3] were 1.3 nM and 20.1 nM, respectively.
